In paper PMC3905892 (Nucleic Acids Research, 2013):

Biological target: Paf1(57–392) (human, UniProt Q8N7H5 57-392)
Assay: SEC

B1: Leo1(277–562) (domain or fragment)
chain: SDSEDEVLRMKRKNAIASDSEADSDTEVPKDNSGTMDLFGGADDISSGSDGEDKPPTPGQPVDENGLPQDQQEEEPIPETRIEVEIPKVNTDLGNDLYFVKLPNFLSVEPRPFDPQYYEDEFEDEEMLDEEGRTRLKLKVENTIRWRIRRDEEGNEIKESNARIVKWSDGSMSLHLGNEVFDVYKAPLQGDHNHLFIRQGTGLQGQAVFKTKLTFRPHSTDSATHRKMTLSLADRCSKTQKIRILPMAGRDPECQRTEMIKKEEERLRASIRRESQQRRMREKQHQ
- stoichiometry N: 1
